The target in this test is rabies virus glycoprotein (G) (rabies virus (strain CVS-27)) (UniProt O92284). The test is described as follows: cryo-electron tomography.

As to “rabies virus glycoprotein (G) (from UniProt O92284 20-524) (natural protein)”, the stoichiometry N (as a rule, a count of units in the complex or per binding partner) amounted to 3.

Values taken from PMC11437398.
